Data from article doi:10.1101/2021.02.17.431743 (bioRxiv, 2021).

B1: HENV-117 human monoclonal antibody (antibody, V domains shown)
VH: QVQLQQWGAGLLKPSETLSLTCDLSGGSFTNYYWTWIRHLPGKGLEWLGEINHSGRTNYSPSLKSRVTISVDTSKNQFSLRLSSVTAADTAVYYCARDIRKLAPKPHSYDLYYGMDVWGQGTTVTVSS
VL: EIVLTQSPGTLSLSPGERATLSCRASQSVGSNYLTWYQQKPGQPPRLLIYGASNRAAGIPDRFSGSGSGTDFTLTISRLEPEDFAVYYCQQYETSSRTFGQGTKVDIR
B2: HENV-103 human monoclonal antibody (antibody, V domains shown)
VH: QVQLQGSGPGLVKPSQTLSLTCSVSGGSVSRSGYYWGWIRQHPGKGLECIGYIYYSGITYYNPSLSGRLTISVDTSKNQFSLELSSVTAADTAVYYCARVWLGGGVFDFWGQGSLVTVSS
VL: EIVMTQSPATLSVSPGEGATLSCRASQSVSSNLAWYQQKPGQAPRLLIYDASTRATGIPARFSGSGSGTEFTLTISSLQSEDFAVYYCQQYNDWRTFGRGTKVEMR

Molecular target: full-length HeV-RBP (Hendra virus receptor binding protein); head, stalk, transmembrane, and cytoplasmic … (Hendra virus, UniProt O89343)
Assay: flow cytometry on cells

full-length HeV-RBP (Hendra virus receptor binding protein); head, stalk, transmembrane, and cytoplasmic …, sequence (O89343 whole entry): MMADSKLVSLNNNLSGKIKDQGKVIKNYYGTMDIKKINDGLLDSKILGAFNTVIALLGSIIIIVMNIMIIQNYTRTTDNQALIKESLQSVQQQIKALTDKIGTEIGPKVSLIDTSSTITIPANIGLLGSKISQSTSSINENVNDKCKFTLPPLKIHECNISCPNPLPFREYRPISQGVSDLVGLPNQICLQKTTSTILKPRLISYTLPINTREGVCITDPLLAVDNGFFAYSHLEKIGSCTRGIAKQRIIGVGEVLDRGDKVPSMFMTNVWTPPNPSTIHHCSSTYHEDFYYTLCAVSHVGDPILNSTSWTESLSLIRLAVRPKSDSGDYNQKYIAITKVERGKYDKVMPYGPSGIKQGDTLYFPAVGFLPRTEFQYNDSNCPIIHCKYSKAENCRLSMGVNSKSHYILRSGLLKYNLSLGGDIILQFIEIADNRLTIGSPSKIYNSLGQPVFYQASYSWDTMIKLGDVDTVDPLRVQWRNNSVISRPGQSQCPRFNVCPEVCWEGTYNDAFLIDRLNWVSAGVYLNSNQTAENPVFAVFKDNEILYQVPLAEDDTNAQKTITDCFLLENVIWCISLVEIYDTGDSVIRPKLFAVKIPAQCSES

| Binder | binding result |
| --- | --- |
| B1 | binds |
| B2 | binds |
